Experimental data published in PMC4020817.

Legend:
[1] = biological target: recombinant APOBEC3A (rA3A) (human) (UniProt P31941); assay: SEC; rA3A without concentration on a Superose-12 gel filtration column (FPLC) with protein standards, in the buffer used for measuring deaminase activity; fractions immunoblotted with anti-A3A antibody
[2] = system: rA3A wild type (Homo sapiens); assay: fluorescence binding titration; details: EMSA: 0.5 pmol oligo, 2 ug rA3A in 10 ul deaminase buffer (composition not given), 4 C, 1 h, 6% native PAGE. Intrinsic fluorescence: 225 nM rA3A, 25 mM Tris pH …
[3] = biological target: A3A E72A/delWG104-5 E72A;del104-105 (Homo sapiens) (UniProt P31941); assay: extrinsic fluorescence titration; details: EMSA: 0.5 pmol oligo, 2 ug rA3A in 10 ul deaminase buffer (composition not given), 4 C, 1 h, 6% native PAGE. Intrinsic fluorescence: 225 nM rA3A, 25 mM Tris pH …
A3A E72A/delWG104-5 E72A;del104-105 (Homo sapiens), sequence (P31941 other isoform, or with tags, fused parts or gaps E72A E72A): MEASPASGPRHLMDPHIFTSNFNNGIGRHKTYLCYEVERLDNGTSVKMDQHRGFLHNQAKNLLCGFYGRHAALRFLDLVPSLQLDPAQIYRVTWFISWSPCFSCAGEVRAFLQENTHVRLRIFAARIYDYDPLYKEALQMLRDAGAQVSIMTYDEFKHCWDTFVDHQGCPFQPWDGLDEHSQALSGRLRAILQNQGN

recombinant APOBEC3A (rA3A), P31941 1-199 (enzyme; other documents disagree on this pair), sequence (P31941 whole entry): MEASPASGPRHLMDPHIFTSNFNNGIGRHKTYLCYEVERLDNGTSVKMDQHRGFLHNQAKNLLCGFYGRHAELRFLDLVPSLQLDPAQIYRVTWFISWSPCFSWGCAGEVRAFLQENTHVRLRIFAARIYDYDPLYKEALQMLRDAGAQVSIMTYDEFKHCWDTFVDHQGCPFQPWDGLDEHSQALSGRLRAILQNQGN

## recombinant APOBEC3A (rA3A), P31941 1-199 (enzyme; other documents disagree on this pair)
[1]
  stoichiometry N: 2

## ssDNA oligo of fluorescence Kd assays
[2]
  Kd: 158 nM
[3]
  binding signal (fold higher affinity than wild type): 3
